Consider one molecule from patent US20210300999A1 (published 2021).

The target of this assay is SARS-CoV-2 prefusion-stabilized trimeric spike ectodomain (S2Pecto) (SARS-CoV-2;, UniProt P0DTC2 14-1213; P10104 458-484). Put plainly: ELISA. A general note: ELISA stands for enzyme-linked immunosorbent assay.

B1: COV2-2196 (antibody, V domains shown)
VH: QMQLVQSGPEVKKPGTSVKVSCKASGFTFMSSAVQWVRQARGQRLEWIGWIVIGSGNTNYAQKFQERVTITRDMSTSTAYMELSSLRSEDTAVYYCAAPYCSSISCNDGFDIWGQGTMVTVSS
VL: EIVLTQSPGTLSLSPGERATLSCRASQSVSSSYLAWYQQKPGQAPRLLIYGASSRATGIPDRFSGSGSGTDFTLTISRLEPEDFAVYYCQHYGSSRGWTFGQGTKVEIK
A word on the IC50: it is the concentration at which inhibition is half-maximal. The molecule B1 returned an IC50 of 0.058 µg/mL.
